Test results as given in patent US20060281125, “ICBP90 polypeptide and its fragments and polynucleotides coding for said polypeptides and applications for diagnosing and treating cancer” (Institut National de la Sante et de la Recherche Medicale, published 2006).

Target: T1, ICBP-59 (Homo sapiens, UniProt Q96T88 SEQ:263-793)
T1 chain: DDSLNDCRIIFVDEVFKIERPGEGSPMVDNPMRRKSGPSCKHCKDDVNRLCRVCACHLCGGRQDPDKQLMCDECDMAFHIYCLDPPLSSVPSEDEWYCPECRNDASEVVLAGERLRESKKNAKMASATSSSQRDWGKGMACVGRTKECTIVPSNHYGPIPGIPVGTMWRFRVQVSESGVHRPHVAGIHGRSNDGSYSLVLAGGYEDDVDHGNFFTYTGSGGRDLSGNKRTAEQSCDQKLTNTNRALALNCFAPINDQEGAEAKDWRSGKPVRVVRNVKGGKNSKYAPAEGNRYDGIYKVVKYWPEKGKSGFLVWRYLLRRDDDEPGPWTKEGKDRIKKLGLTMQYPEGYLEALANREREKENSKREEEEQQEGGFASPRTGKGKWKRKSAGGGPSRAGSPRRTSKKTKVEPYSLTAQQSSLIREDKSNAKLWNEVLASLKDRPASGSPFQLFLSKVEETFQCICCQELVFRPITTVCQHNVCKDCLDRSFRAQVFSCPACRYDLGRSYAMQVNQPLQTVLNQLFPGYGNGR
Assay: EMSA; 12 mM HEPES-NaOH pH 7.9, 60 mM KCl, 4 mM Tris-HCl, 12% glycerol, poly(dI/dC), room temperature
Details: tags: GST fusion (pGEX-4T-1), GST cleaved with thrombin; label: 32P; cohesive EcoRI/XbaI ends
Description: The ICBP-59 protein (1 μg) was incubated with 1 ng of oligonucleotide and labelled at its terminal end by phosphorous ³²P in 12% glycerol, 12 mM HEPES-NaOH (pH 7.9), 60 mM KCl, 4 mM Tris-HCl (pH 7.9), 100 ng BSA, 0.6 mM DTT, and 100 ng poly(dI/dC) in 20 μl (Inouye et al., 1994). After a 30-minutes incubation at room temperature, the reaction mix was loaded in 6% polyacrylamide gels. In competition experiments, the quantity indicated of non-labelled oligonucleotides were added to the reaction mix 10 minutes before the addition of proteins. To examine the binding properties of ICBP90 with regard to the ICB2 box, we used the same protocol except that labelled oligonucleotide contained only one copy of the CCAAT sequence as described below: […]

B1: ICB2X3 (dsDNA)
DNA 1: AATTCGATTGGTTCTGATTGGTTCTGATTGGTTCTT
DNA 2: CTAGAAGAACCAATCAGAACCAATCAGAACCAATCG
B1: binds.
